Data on 1 substance can be found in US8318708B2, “Use of vitamin D receptor agonists, ligands, and precursors to treat pancreatic fibrosis” (Salk Institute for Biological Studies, priority 2007, dated 2012).

For assay [1], the target named is T1, VDR (Homo sapiens, UniProt P11473).
T1 construct: endogenous in cells; host or cells: human LX-2 hepatic stellate cell line
T1 sequence (P11473 1-427): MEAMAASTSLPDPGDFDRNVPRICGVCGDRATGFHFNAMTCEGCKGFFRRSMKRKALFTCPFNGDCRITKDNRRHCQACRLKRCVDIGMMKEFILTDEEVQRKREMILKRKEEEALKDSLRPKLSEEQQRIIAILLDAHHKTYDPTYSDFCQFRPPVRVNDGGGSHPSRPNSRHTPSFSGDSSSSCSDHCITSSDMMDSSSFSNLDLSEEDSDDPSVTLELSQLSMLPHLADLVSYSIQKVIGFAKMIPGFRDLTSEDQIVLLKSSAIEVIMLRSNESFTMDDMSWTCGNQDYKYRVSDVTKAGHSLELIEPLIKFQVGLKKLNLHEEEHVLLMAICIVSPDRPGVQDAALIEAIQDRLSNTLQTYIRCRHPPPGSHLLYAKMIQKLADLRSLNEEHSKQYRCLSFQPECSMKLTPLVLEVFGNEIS
Nature of the assay: Real-time qPCR of CYP24A1 in human LX-2 cell line. The class given is cell-based. The settings on record: LX-2 cells overnight; 1,α25(OH)2D3 1 nM, TGF β1 100 pM. As to the method:
Human LX-2 cells were grown to 50% confluence in DMEM with 10% FBS in 6-Well plates.
For qRT-PCR, 500 ng of deoxyribonuclease-treated total RNA was reverse transcribed into cDNA using SuperScript™ III reverse transcriptase essentially as described by the manufacturer (Invitrogen). Quantification of gene of interest mRNA was performed using a Rotor-Gene, RG 6000 (Corbett Research). […] Human B2M primers were from Applied Biosystems.
TGFβ signaling is the key mediator in hepatic fibrogenesis, triggering the transition of HSCs into myofibroblast-like cells and thereby stimulating synthesis of ECM proteins. Thus, TGFβ1 is produced locally in the organ as part of the fibrotic process It has been previously reported that TGFB signaling can influence the activity of VDR-dependent genes, as depicted in (FIG. 8A). In this model, TGFβ activation results in SMAD3 phosphorylation, inducing its translocation into the nucleus where it associates with the ligand bound VDR complex. Phosphorylated SMAD3 acts as a co-activator in the VDR/vitaminD3 complex enhancing the transcriptional potential of VDR on target genes. To understand the interplay between TGFB and VDR signaling pathways, the effects of TGFβ on the well characterized VDR gene target Cyp24α1 were examined.

Assay [2] addresses T2, VDR (Rattus norvegicus, UniProt P13053).
T2 sequence (P13053 1-423): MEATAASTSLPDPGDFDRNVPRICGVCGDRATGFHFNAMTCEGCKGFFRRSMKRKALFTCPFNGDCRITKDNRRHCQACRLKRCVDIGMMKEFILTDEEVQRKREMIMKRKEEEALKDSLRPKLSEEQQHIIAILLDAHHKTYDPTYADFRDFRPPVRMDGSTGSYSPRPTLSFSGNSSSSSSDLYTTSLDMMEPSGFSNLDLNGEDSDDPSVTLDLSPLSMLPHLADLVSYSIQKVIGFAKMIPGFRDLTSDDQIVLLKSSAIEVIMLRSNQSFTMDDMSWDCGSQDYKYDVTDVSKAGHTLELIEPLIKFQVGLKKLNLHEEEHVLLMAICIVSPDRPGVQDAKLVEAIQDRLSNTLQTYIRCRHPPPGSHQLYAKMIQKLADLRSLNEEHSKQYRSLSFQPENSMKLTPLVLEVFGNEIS
Description: Western blot of VDR in sinusoidal endothelial cells (SECs). The class given is cell-based. The arrangement: endogenous in cells; host or cells: primary rat hepatic stellate cells, sinusoidal endothelial cells, Kupffer cells and hepatocytes (Sprague-Dawley rats). The settings on record: FIG. 10A.
Description: Hepatic sinusoidal endothelial cells (SECs) and Kupffer cells (KCs) were elutriated from rat liver and maintained in cell culture.

Turning to “TGF-β1: transforming growth factor beta 1; human recombinant from Sigma-Aldrich T7039”, the “CYP24a1 gene expression (QPCR, normalized to 36B4)” value with VDR [1] is reported as “no effect”. Moreover, the VDR protein expression result in the assay with VDR [2] was “induced”.
